Source: the supplement of paper PMC11246515
± gives the standard deviation of the averaged measurements.

Assay: total protein half-life in vivo (active degradation + dilution); higher = more stable protein
[1] = E. coli NCM3722 delta-clpP delta-lon delta-hslV, growth: N-lim chemostat, doubling time 6 h
[2] = E. coli NCM3722 delta-clpP, growth: N-lim chemostat, doubling time 6 h
[3] = E. coli NCM3722 delta-hslV, growth: N-lim chemostat, doubling time 6 h
[4] = E. coli NCM3722 delta-lon, growth: N-lim chemostat, doubling time 6 h
[5] = E. coli NCM3722 delta-smpB, growth: N-lim chemostat, doubling time 6 h
[6] = wild type E. coli NCM3722, growth: N-lim chemostat, doubling time 12 h
[7] = wild type E. coli NCM3722, growth: P-lim chemostat, doubling time 6 h
[8] = wild type E. coli NCM3722, growth: C-lim chemostat, doubling time 3 h
[9] = wild type E. coli NCM3722, growth: C-lim chemostat, doubling time 6 h
[10] = wild type E. coli NCM3722, growth: C-lim chemostat, doubling time 12 h
[11] = wild type E. coli NCM3722, growth: N-lim chemostat, doubling time 6 h
[12] = wild type E. coli NCM3722, growth: P-lim chemostat, doubling time 12 h

Row | Sequence | total protein half-life in vivo [1] | total protein half-life in vivo [2] | total protein half-life in vivo [3] | total protein half-life in vivo [4] | total protein half-life in vivo [5] | total protein half-life in vivo [6] | total protein half-life in vivo [7] | total protein half-life in vivo [8] | total protein half-life in vivo [9] | total protein half-life in vivo [10] | total protein half-life in vivo [11] | total protein half-life in vivo [12]
1 | MLLPWLILIPFIGGFLCWQTERFGVKVPRWIALITMGLTLALSLQLWLQGGYSLTQSAGIPQWQSEFDMPWIPRFGISIHLAIDGLSLLMVVLTGLLGVLAVLCSWKEIEKYQGFFHLNLMWILGGVIGVFLAIDMFLFFFFWEMMLVPMYFLIALWGHKASDGKTRITAATKFFIYTQASGLVMLIAILALVFVHYNATGVWTFNYEELLNTPMSSGVEYLLMLGFFIAFAVKMPVVPLHGWLPDAHSQAPTAGSVDLAGILLKTAAYGLLRFSLPLFPNASAEFAPIAMWLGVIGIFYGAWMAFAQTDIKRLIAYTSVSHMGFVLIAIYTGSQLAYQGAVIQMIAHGLSAAGLFILCGQLYERIHTRDMRMMGGLWSKMKWLPALSLFFAVATLGMPGTGNFVGEFMILFGSFQVVPVITVISTFGLVFASVYSLAMLHRAYFGKAKSQIASQELPGMSLRELFMILLLVVLLVLLGFYPQPILDTSHSAIGNIQQWFVNSVTTTRP [P0AFE8] | 7.36 ± 0.89 h | 6.54 ± 0.28 h | 5.66 ± 0.85 h | 6.41 ± 0.17 h | 6.818 ± 0.033 h | 12.04 ± 0.017 h | 6.24 ± 0.25 h |  |  |  |  | 
2 | MLNNAMSVVILAAGKGTRMYSDLPKVLHTLAGKAMVQHVIDAANELGAAHVHLVYGHGGDLLKQALKDDNLNWVLQAEQLGTGHAMQQAAPFFADDEDILMLYGDVPLISVETLQRLRDAKPQGGIGLLTVKLDDPTGYGRITRENGKVTGIVEHKDATDEQRQIQEINTGILIANGADMKRWLAKLTNNNAQGEYYITDIIALAYQEGREIVAVHPQRLSEVEGVNNRLQLSRLERVYQSEQAEKLLLAGVMLRDPARFDLRGTLTHGRDVEIDTNVIIEGNVTLGHRVKIGTGCVIKNSVIGDDCEISPYTVVEDANLAAACTIGPFARLRPGAELLEGAHVGNFVEMKKARLGKGSKAGHLTYLGDAEIGDNVNIGAGTITCNYDGANKFKTIIGDDVFVGSDTQLVAPVTVGKGATIAAGTTVTRNVGENALAISRVPQTQKEGWRRPVKKK [P0ACC7] | 6.48 ± 0.94 h | 5.96 ± 1.1 h | 5.08 ± 0.11 h | 5.46 ± 0.28 h | 4.93 ± 0.12 h | 9.31 ± 0.57 h | 5.96 ± 0.37 h | 2.92 ± 0.096 h | 5.9 ± 0.48 h | 11.8 ± 0.66 h | 5.122 ± 0.044 h | 12.9 ± 0.34 h
3 | MLNPIVRKFQYGQHTVTLETGMMARQATAAVMVSMDDTAVFVTVVGQKKAKPGQDFFPLTVNYQERTYAAGRIPGSFFRREGRPSEGETLIARLIDRPIRPLFPEGFVNEVQVIATVVSVNPQVNPDIVAMIGASAALSLSGIPFNGPIGAARVGYINDQYVLNPTQDELKESKLDLVVAGTEAAVLMVESEAQLLSEDQMLGAVVFGHEQQQVVIQNINELVKEAGKPRWDWQPEPVNEALNARVAALAEARLSDAYRITDKQERYAQVDVIKSETIATLLAEDETLDENELGEILHAIEKNVVRSRVLAGEPRIDGREKDMIRGLDVRTGVLPRTHGSALFTRGETQALVTATLGTARDAQVLDELMGERTDTFLFHYNFPPYSVGETGMVGSPKRREIGHGRLAKRGVLAVMPDMDKFPYTVRVVSEITESNGSSSMASVCGASLALMDAGVPIKAAVAGIAMGLVKEGDNYVVLSDILGDEDHLGDMDFKVAGSRDGISALQMDIKIEGITKEIMQVALNQAKGARLHILGVMEQAINAPRGDISEFAPRIHTIKINPDKIKDVIGKGGSVIRALTEETGTTIEIEDDGTVKIAATDGEKAKHAIRRIEEITAEIEVGRVYTGKVTRIVDFGAFVAIGGGKEGLVHISQIADKRVEKVTDYLQMGQEVPVKVLEVDRQGRIRLSIKEATEQSQPAAAPEAPAAEQGE | 6.65 ± 0.71 h | 6.67 ± 0.63 h | 5.92 ± 0.65 h | 6.01 ± 0.18 h | 5.58 ± 0.41 h | 11.8 ± 0.57 h | 6.05 ± 0.14 h | 3.25 ± 0.055 h | 6.31 ± 0.21 h | 11.5 ± 0.16 h | 5.78 ± 0.26 h | 12.4 ± 1.5 h
4 | MLNQELELSLNMAFARAREHRHEFMTVEHLLLALLSNPSAREALEACSVDLVALRQELEAFIEQTTPVLPASEEERDTQPTLSFQRVLQRAVFHVQSSGRNEVTGANVLVAIFSEQESQAAYLLRKHEVSRLDVVNFISHGTRKDEPTQSSDPGSQPNSEEQAGGEERMENFTTNLNQLARVGGIDPLIGREKELERAIQVLCRRRKNNPLLVGESGVGKTAIAEGLAWRIVQGDVPEVMADCTIYSLDIGSLLAGTKYRGDFEKRFKALLKQLEQDTNSILFIDEIHTIIGAGAASGGQVDAANLIKPLLSSGKIRVIGSTTYQEFSNIFEKDRALARRFQKIDITEPSIEETVQIINGLKPKYEAHHDVRYTAKAVRAAVELAVKYINDRHLPDKAIDVIDEAGARARLMPVSKRKKTVNVADIESVVARIARIPEKSVSQSDRDTLKNLGDRLKMLVFGQDKAIEALTEAIKMARAGLGHEHKPVGSFLFAGPTGVGKTEVTVQLSKALGIELLRFDMSEYMERHTVSRLIGAPPGYVGFDQGGLLTDAVIKHPHAVLLLDEIEKAHPDVFNILLQVMDNGTLTDNNGRKADFRNVVLVMTTNAGVRETERKSIGLIHQDNSTDAMEEIKKIFTPEFRNRLDNIIWFDHLSTDVIHQVVDKFIVELQVQLDQKGVSLEVSQEARNWLAEKGYDRAMGARPMARVIQDNLKKPLANELLFGSLVDGGQVTVALDKEKNELTYGFQSAQKHKAEAAH [P0ABH9] | 6.61 ± 0.43 h | 6.29 ± 0.55 h | 0.877 ± 0.22 h | 0.987 ± 0.069 h | 0.823 ± 0.015 h | 1.046 ± 0.0038 h | 0.795 ± 0.2 h | 0.7994 ± 0.0018 h | 0.97 ± 0.039 h | 1.14 ± 0.28 h | 1.03 ± 0.18 h | 1.56 ± 0.78 h
5 | MLNQKIQNPNPDELMIEVDLCYELDPYELKLDEMIEAEPEPEMIEGLPASDALTPADRYLELFEHVQSAKIFPDSKTFPDCAPKMDPLDILIRYRKVRRHRDFDLRKFVENHFWLPEVYSSEYVSDPQNSLKEHIDQLWPVLTREPQDHIPWSSLLALPQSYIVPGGRFSETYYWDSYFTMLGLAESGREDLLKCMADNFAWMIENYGHIPNGNRTYYLSRSQPPVFALMVELFEEDGVRGARRYLDHLKMEYAFWMDGAESLIPNQAYRHVVRMPDGSLLNRYWDDRDTPRDESWLEDVETAKHSGRPPNEVYRDLRAGAASGWDYSSRWLRDTGRLASIRTTQFIPIDLNAFLFKLESAIANISALKGEKETEALFRQKASARRDAVNRYLWDDENGIYRDYDWRREQLALFSAAAIVPLYVGMANHEQADRLANAVRSRLLTPGGILASEYETGEQWDKPNGWAPLQWMAIQGFKMYGDDLLGDEIARSWLKTVNQFYLEQHKLIEKYHIADGVPREGGGGEYPLQDGFGWTNGVVRRLIGLYGEP | 5.33 ± 0.21 h | 3.703 ± 0.019 h | 2.44 ± 0.17 h | 2.97 ± 0.09 h | 2.61 ± 0.21 h | 3.37 ± 0.04 h | 2.42 ± 0.43 h | 1.15 h | 2.95 h | 3.87 ± 0.14 h | 2.47 ± 0.1 h | 4.75 ± 0.37 h
